For two substances, stoichiometry N results are on record in PMC10786401.

Assay [1] addresses N67A mutant ZIKV capsid (C) protein as N-terminal MBP fusion (MBP-C_(N67A)) (Zika virus MR766). Put plainly: cross-linking; glutaraldehyde 0, 0.25, 0.5 and 1.0 mM; MBP-C protein 0.16 mg/ml in PBS, 50 uL, room temperature, 20 min, stopped with 50 mM Tris pH 8; SDS-PAGE, Coomassie blue.
Assay [2] deals with Wild-type ZIKV capsid (C) protein as N-terminal MBP fusion (MBP-CWT) (Zika virus MR766). The description is as above.

Broadly, the stoichiometry N is a count of units in the complex or per binding partner.

For the substance “N67A mutant ZIKV capsid (C) protein as N-terminal MBP fusion (MBP-C_(N67A)) (natural protein)”, in assay [1], the stoichiometry N is 2.
With “Wild-type ZIKV capsid (C) protein as N-terminal MBP fusion (MBP-CWT) (natural protein)”, the stoichiometry N in assay [2] was determined as 2.
